The source of these data is article PMC12828377, “HDAC6-mediated PFKL deacetylation enhances aerobic glycolysis and promotes VSMC proliferation” (The Journal of Biological Chemistry, 2025).

Holding throughout (assay): cross-linking; VSMC lysate (700 ug protein in NP40 buffer) fixed with 0.1% glutaraldehyde on ice for 10 min, then Western blot; cells with or without PDGF-BB (10 ng/ml, different durations), TSA or NAM, or transduced with Ad-PFKL WT/K563Q/K563R
On the technique in general: Immunoblotting shows a protein as a band on a membrane.

In one data set the target is HA-PFKL K563R (UniProt P17858).
The next data set concerns the target HA-PFKL WT (UniProt P17858).
Data set [1] concerns the molecule itself.

In the data set with HA-PFKL K563R, “HA-PFKL K563R (from UniProt P17858 1-780) (enzyme)” came in with a stoichiometry N of 4.

“HA-PFKL WT (from UniProt P17858 1-780) (enzyme)”: in the data set with HA-PFKL WT, the stoichiometry N turned out to be 4.

B1: phosphofructokinase, liver type (PFKL) (enzyme, rat (endogenous in primary rat VSMCs), UniProt P30835 1-780, looked up)
chain: MATVDLEKLRMSGAGKAIGVLTSGGDAQGMNAAVRAVTRMGIYVGAKVFLIYEGYEGLVEGGENIKPANWLSVSNIIQLGGTIIGSARCKAFTTREGRLAAAYNLLQHGITNLCVIGGDGSLTGANIFRNEWGSLLEELVKEGKISESTAQNYAHLSIAGLVGSIDNDFCGTDMTIGTDSALHRIMEVIDAITTTAQSHQRTFVLEVMGRHCGYLALVSALASGADWLFIPEAPPEDGWENFMCERLGETRSRGSRLNIIIIAEGAIDRHGKPISSSYVKDLVVQRLGFDTRVTVLGHVQRGGTPSAFDRVLSSKMGMEAVMALLEATPDTPACVVSLSGNQSVRLPLMECVQVTKDVQKAMDEKRFDEAIQLRGRSFENNWKIYKLLAHQKVSKEKSNFSLAILNVGAPAAGMNAAVRSAVRTGISEGHTVYVVHDGFEGLAKGQVQEVGWHDVAGWLGRGGSMLGTKRTLPKPHLEAIVENLRTYNIHALLVIGGFEAYEGVLQLVEARGRYEELCIVMCVIPATISNNVPGTDFSLGSDTAVNAAMESCDRIKQSASGTKRRVFIVETMGGYCGYLATVTGIAVGADAAYVFEDPFNIHDLKANVEHMTEKMKTDIQRGLVLRNEKCHEHYTTEFLYNLYSSEGRGVFDCRTNVLGHLQQGGAPTPFDRNYGTKLGVKAMLWMSEKLRDVYRKGRVFANAPDSACVIGLRKKVVAFSSVTELKKETDFEHRMPREQWWLNLRLMLKMLAHYRISMADYVSGELEHVTRRTLSIDKGF
notes: phosphofructokinase, liver type (PFKL), endogenous in primary VSMCs from the thoracic aorta of Sprague-Dawley rats; Acetylation level of the endogenous protein changes with PDGF-BB, TSA or NAM; sites on the endogenous protein were not mapped directly; also called endogenous PFKL; PFK1 liver isoform; source: endogenous, primary rat VSMC lysate (NP-40 buffer) or fixed VSMCs
As to B1, in data set [1], the “stoichiometry N” value was 4.

Broadly, the stoichiometry N is the number of molecules, sites or subunits per partner or assembly.
